Reference: patent US9212226B2, “Amino acid sequences directed against CXCR4 and other GPCRs and compounds comprising the same” (Ablynx N.V., priority 2008, dated 2015)
“Also recorded” adds a separate entry of the source. Marks after values point to notes of the source that are not given here.

T1: CXCR1 (Homo sapiens, UniProt P25024)
T1 sequence (P25024 1-350): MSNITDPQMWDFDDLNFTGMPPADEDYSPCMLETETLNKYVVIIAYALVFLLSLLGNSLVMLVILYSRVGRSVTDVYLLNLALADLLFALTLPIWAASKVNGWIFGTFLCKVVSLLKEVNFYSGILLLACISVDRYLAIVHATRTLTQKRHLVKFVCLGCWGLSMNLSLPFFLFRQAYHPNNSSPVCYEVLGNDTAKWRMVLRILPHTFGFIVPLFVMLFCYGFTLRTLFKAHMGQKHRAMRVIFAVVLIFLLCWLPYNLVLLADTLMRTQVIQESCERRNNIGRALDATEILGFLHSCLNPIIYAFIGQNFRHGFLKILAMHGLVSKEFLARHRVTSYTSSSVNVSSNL

T2: CXCR2 (Homo sapiens, UniProt P25025)
T2 sequence (P25025 1-360): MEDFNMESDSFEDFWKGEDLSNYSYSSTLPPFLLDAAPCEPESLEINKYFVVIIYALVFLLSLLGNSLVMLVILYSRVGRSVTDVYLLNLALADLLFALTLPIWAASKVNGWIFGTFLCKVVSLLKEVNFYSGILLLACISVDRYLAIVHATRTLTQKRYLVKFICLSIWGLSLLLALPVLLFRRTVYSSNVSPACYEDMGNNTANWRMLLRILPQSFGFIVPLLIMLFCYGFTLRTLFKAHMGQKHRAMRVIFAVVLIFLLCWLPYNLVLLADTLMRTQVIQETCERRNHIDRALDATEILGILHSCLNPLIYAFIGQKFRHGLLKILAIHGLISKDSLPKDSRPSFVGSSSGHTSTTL

B1: 238D2: Nanobody (VHH) raised against human CXCR4, SEQ ID NO: 238 (protein)
VHH: EVQLVESGGGLVQTGGSLRLSCAASGFTFSSYAMSWVRQAPGKGLEWVSGIKSSGDSTRYAGSVKGRFTISRDNAKNMLYLQMYSLKPEDTAVYYCAKSRVSRTGLYTYDNRGQGTQVTVSS
modifications: Nanobody, Nanobody constructs or fragments thereof
B2: 238D4: Nanobody (VHH) raised against human CXCR4, SEQ ID NO: 239 (protein)
VHH: EVQLMESGGGLVQAGGSLRLSCAASGRTFNNYAMGWFRRAPGKEREFVAAITRSGVRSGVSAIYGDSVKDRFTISRDNAKNTLYLQMNSLKPEDTAVYTCAASAIGSGALRRFEYDYSGQGTQVTVSS
modifications: Nanobody, Nanobody constructs or fragments thereof

Assays:
CCR5 = CCR5 (Homo sapiens, UniProt P51681); assay: CRE/β-galactosidase reporter gene selectivity screen, CCR5; type: cell-based; conditions: up to 2.5, forskolin 3 μM, agonist at 50-80% Emax
Chain of CCR5 (P51681 whole entry): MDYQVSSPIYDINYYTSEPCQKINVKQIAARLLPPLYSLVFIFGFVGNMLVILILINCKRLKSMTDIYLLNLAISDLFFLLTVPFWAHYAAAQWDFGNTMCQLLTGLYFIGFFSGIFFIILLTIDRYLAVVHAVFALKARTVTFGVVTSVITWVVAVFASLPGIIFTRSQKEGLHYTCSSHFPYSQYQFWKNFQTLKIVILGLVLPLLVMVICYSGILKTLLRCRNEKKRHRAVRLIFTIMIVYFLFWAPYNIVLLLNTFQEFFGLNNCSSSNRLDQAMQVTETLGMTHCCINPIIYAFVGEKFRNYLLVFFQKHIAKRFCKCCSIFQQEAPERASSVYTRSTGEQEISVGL
Method: (§1) Data are shown as means±S.E.M. (n=2-3).
(§2) HEK293T cells were maintained at 37° C. in a humidified 5% CO2, 95% air atmosphere in Dulbecco's modified Eagle's medium (DMEM) containing 2 mM L-glutamine, 50 IU/ml penicillin, 50 μg/ml streptomycin, and 10% (v/v) fetal calf serum. Jurkat cells were cultured in a humidified 5% CO2, 95% air atmosphere in a 1:1 mixture of Dulbecco's modified Eagle's medium (DMEM) and Ham's F12 medium containing 2 mM L-glutamine, 50 IU/ml penicillin, 50 μg/ml streptomycin, and 10% (v/v) fetal calf serum. […] [^125 I]-Labelling— Radiolabeling of Nanobodies with ^125I was performed using the Iodo-gen method (Pierce, Rockford, Ill.) according to the manufacturer's protocol. ^125I-labeled Nanobodies was separated from free iodine (>99%) using a Sephadex G-25 gel filtration column (Amersham Biosciences, Piscataway, N.J.). […] Competition Binding Assays— Membranes from HEK293T cells transiently expressing CXCR3 or CXCR4 were prepared 48 h after transfection as follows. Cells were washed and scraped from the cell culture dishes with ice-cold PBS containing 1 mm EDTA. The scraped cells were pelleted at 1500×g for 10 min at 4° C. […] The total protein was determined using a Bradford assay (Bio-Rad). […] Plates were counted by liquid scintillation. […] The accumulated inositol phosphates were isolated by anion exchange chromatography and counted by liquid scintillation. […]

CXCR4 (N119A) = CXCR4 (N119A) (Homo sapiens, UniProt P61073, N119A); assay: [125I]-CXCL12 competition binding on the constitutively active CXCR4 mutant N119A; conditions: for binding to / displacement of [125I]-CXCL12 from CXCR4 (N119A): highest test concentration 2 μM, n=3
Chain of CXCR4 (N119A) (P61073 whole entry N119A): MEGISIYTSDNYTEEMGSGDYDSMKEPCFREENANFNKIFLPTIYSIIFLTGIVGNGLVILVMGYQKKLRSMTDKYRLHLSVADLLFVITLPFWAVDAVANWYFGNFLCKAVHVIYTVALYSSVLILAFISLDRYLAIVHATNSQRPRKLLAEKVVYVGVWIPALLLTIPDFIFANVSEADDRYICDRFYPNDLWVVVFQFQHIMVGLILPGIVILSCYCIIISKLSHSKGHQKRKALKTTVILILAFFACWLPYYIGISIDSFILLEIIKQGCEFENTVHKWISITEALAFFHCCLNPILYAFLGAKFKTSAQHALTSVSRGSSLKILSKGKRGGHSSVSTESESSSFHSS
Method: HEK293T cells were maintained at 37° C. in a humidified 5% CO2, 95% air atmosphere in Dulbecco's modified Eagle's medium (DMEM) containing 2 mM L-glutamine, 50 IU/ml penicillin, 50 μg/ml streptomycin, and 10% (v/v) fetal calf serum. Jurkat cells were cultured in a humidified 5% CO2, 95% air atmosphere in a 1:1 mixture of Dulbecco's modified Eagle's medium (DMEM) and Ham's F12 medium containing 2 mM L-glutamine, 50 IU/ml penicillin, 50 μg/ml streptomycin, and 10% (v/v) fetal calf serum. […] [^125 I]-Labelling— Radiolabeling of Nanobodies with ^125I was performed using the Iodo-gen method (Pierce, Rockford, Ill.) according to the manufacturer's protocol. ^125I-labeled Nanobodies was separated from free iodine (>99%) using a Sephadex G-25 gel filtration column (Amersham Biosciences, Piscataway, N.J.). […] Competition Binding Assays— Membranes from HEK293T cells transiently expressing CXCR3 or CXCR4 were prepared 48 h after transfection as follows. Cells were washed and scraped from the cell culture dishes with ice-cold PBS containing 1 mm EDTA. The scraped cells were pelleted at 1500×g for 10 min at 4° C. The pellet was washed and then resuspended in ice-cold membrane buffer (15 mM Tris, pH 7.5, 1 mM EGTA, 0.3 mM EDTA, and 2 mM MgCl2). The cell suspension was homogenized by 10 strokes at 1200 rpm using a Teflon-glass homogenizer and rotor and further subjected to three freeze-thaw cycles using liquid nitrogen. Membranes were separated by centrifugation at 40,000 g for 25 min at 4° C. The membrane pellet was washed and resuspended in ice-cold Tris-sucrose buffer (20 mM Tris, pH 7.4, and 250 mM sucrose) and frozen in liquid nitrogen. The total protein was determined using a Bradford assay (Bio-Rad). Periplasmas (1:10) or ligands were pre-incubated with membranes in binding buffer (50 mM HEPES (pH 7.4), 1 mM CaCl2, 5 mM MgCl2, 100 mM NaCl, 0.5% bovine serum albumin) supplemented with 0.5% BSA for 1 h at 22° C. before the addition of [^125I]-CXCL12 (40 pM) or [^125I]-238D2 (3 nM) or [^125I]-238D4 (3 nM) for additional 2 h at 22° C. […] Membranes were then harvested over polyethylenimine (0.5%)-treated Whatman GF/C filter plates and washed three times with ice cold binding buffer containing 500 mM NaCl. Plates were counted by liquid scintillation. Inositol Phosphate Accumulation Assay— 24 hours post transfection with pcDNA3.1-CXCR4 and pcDNA1-HA-mG {alpha} qi5 (see Verzijl et al, 2008 supra), 250.000 cells were seeded into 24-wells plates and labelled overnight using inositol-free minimal essential medium supplemented with 1 μCi myo-[2-^3H]-inositol. The next day, the cells were washed once to remove not incorporated myo-[2-^3H]-inositol. […] The accumulated inositol phosphates were isolated by anion exchange chromatography and counted by liquid scintillation. […]

CXCR1 = target: T1, CXCR1; assay: CRE/β-galactosidase reporter gene selectivity screen, CXCR1; type: cell-based; conditions: up to 2.5, forskolin 3 μM, agonist at 50-80% Emax
Method: as §1, §2

CXCR4 [1] = target: T3, CXCR4 (Homo sapiens, UniProt P61073); assay: CRE/β-galactosidase reporter gene assay in HEK293T cells expressing CXCR4; type: cell-based; conditions: for Schild slope: log(CR-1) vs -log[Nanobody]
T3 sequence (P61073 whole entry): as the sequence (P61073 whole entry N119A) above, with A119N counted along it
Method: (§3) HEK293T cells were maintained at 37° C. in a humidified 5% CO2, 95% air atmosphere in Dulbecco's modified Eagle's medium (DMEM) containing 2 mM L-glutamine, 50 IU/ml penicillin, 50 μg/ml streptomycin, and 10% (v/v) fetal calf serum. Jurkat cells were cultured in a humidified 5% CO2, 95% air atmosphere in a 1:1 mixture of Dulbecco's modified Eagle's medium (DMEM) and Ham's F12 medium containing 2 mM L-glutamine, 50 IU/ml penicillin, 50 μg/ml streptomycin, and 10% (v/v) fetal calf serum. […] [^125 I]-Labelling— Radiolabeling of Nanobodies with ^125I was performed using the Iodo-gen method (Pierce, Rockford, Ill.) according to the manufacturer's protocol. ^125I-labeled Nanobodies was separated from free iodine (>99%) using a Sephadex G-25 gel filtration column (Amersham Biosciences, Piscataway, N.J.). […] Competition Binding Assays— Membranes from HEK293T cells transiently expressing CXCR3 or CXCR4 were prepared 48 h after transfection as follows. Cells were washed and scraped from the cell culture dishes with ice-cold PBS containing 1 mm EDTA. The scraped cells were pelleted at 1500×g for 10 min at 4° C. The pellet was washed and then resuspended in ice-cold membrane buffer (15 mM Tris, pH 7.5, 1 mM EGTA, 0.3 mM EDTA, and 2 mM MgCl2). The cell suspension was homogenized by 10 strokes at 1200 rpm using a Teflon-glass homogenizer and rotor and further subjected to three freeze-thaw cycles using liquid nitrogen. Membranes were separated by centrifugation at 40,000 g for 25 min at 4° C. The membrane pellet was washed and resuspended in ice-cold Tris-sucrose buffer (20 mM Tris, pH 7.4, and 250 mM sucrose) and frozen in liquid nitrogen. The total protein was determined using a Bradford assay (Bio-Rad). Periplasmas (1:10) or ligands were pre-incubated with membranes in binding buffer (50 mM HEPES (pH 7.4), 1 mM CaCl2, 5 mM MgCl2, 100 mM NaCl, 0.5% bovine serum albumin) supplemented with 0.5% BSA for 1 h at 22° C. before the addition of [^125I]-CXCL12 (40 pM) or [^125I]-238D2 (3 nM) or [^125I]-238D4 (3 nM) for additional 2 h at 22° C. […] Membranes were then harvested over polyethylenimine (0.5%)-treated Whatman GF/C filter plates and washed three times with ice cold binding buffer containing 500 mM NaCl. Plates were counted by liquid scintillation. Inositol Phosphate Accumulation Assay— 24 hours post transfection with pcDNA3.1-CXCR4 and pcDNA1-HA-mG {alpha} qi5 (see Verzijl et al, 2008 supra), 250.000 cells were seeded into 24-wells plates and labelled overnight using inositol-free minimal essential medium supplemented with 1 μCi myo-[2-^3H]-inositol. The next day, the cells were washed once to remove not incorporated myo-[2-^3H]-inositol. […] In agonist experiments, the cells were directly stimulated with test compounds and LiCl (10 mM) in assay buffer for 2 h at 37° C. The stimulation was stopped by aspirating the stimulation medium and adding ice-cold 10 mM formic acid. The accumulated inositol phosphates were isolated by anion exchange chromatography and counted by liquid scintillation. CRE Reporter Gene Assay— HEK239T cells were transfected with pCRE/β-galactosidase (Chen W, Shields T S, Stork P J S, Cone R D (1995) Anal Biochem 226:349-354) and plasmids (pcDEF3 or pcDNA3.1) encoding the indicated receptors. 40,000 transfected cells per well were seeded into 96 well plates and grown in DMEM supplemented with 10% fetal calf serum. The medium was replaced 32 h after transfection by serum-free DMEM supplemented with 0.5% bovine serum albumin and ligands as indicated. Following 16 h of ligand incubation, the medium was removed, the cells were lysed in 100 μl of assay buffer (100 mM sodium phosphate buffer at pH 8.0, 4 mM 2-nitrophenol-β-D-pyranoside, 0.5% Triton X-100, 2 mM MgSO4, 0.1 mM MnCl2, and 40 mM β-mercaptoethanol) and incubated at room temperature. […]

β2-adrenoceptors = target: T4, β2-adrenoceptors (Homo sapiens, UniProt P07550); assay: CRE/β-galactosidase reporter gene selectivity screen, endogenous β2-adrenoceptors of HEK293T cells; type: cell-based; conditions: Nanobody 2.5 μM, salbutamol 100 nM, no forskolin
T4 construct: (or mock for the investigation of endogenously expressed β2 adrenoceptors); endogenous in cells; host or cells: HEK293T cells (mock-transfected)
Method: as §1, §2

CXCR4 [2] = target: T3, CXCR4; assay: Inositol phosphate accumulation assay in HEK293T cells expressing CXCR4 and Gαqi5; type: cell-based; conditions: for inhibition of the CXCL12-induced accumulation of inositol phosphates: CXCL12 30 nM; for agonist activity, inositol phosphate accumulation: up to a concentration of 100 nM
Method: as §3

CXCR2 = target: T2, CXCR2; assay: CRE/β-galactosidase reporter gene selectivity screen, CXCR2; type: cell-based; conditions: up to 2.5, forskolin 3 μM, agonist at 50-80% Emax
Method: as §1, §2

[3] = HEK293T-CXCR4-CREbgal/0.01-100 nM CXCL12, mean ± S.E.M.
[4] = HEK293T-CXCR4-Gαqi5/30 nM CXCL12, mean ± S.E.M.

Molecule | effect on agonist-induced response at CCR5 (CCR5) | binding affinity at CXCR4 (N119A) compared to the wild type receptor (CXCR4 (N119A)) | binding to / displacement of [125I]-CXCL12 from CXCR4 (N119A) (CXCR4 (N119A)) | effect on agonist-induced response at CXCR1 (CXCR1) | agonist activity in the absence of CXCL12, CRE reporter (CXCR4 [1]) | mode of antagonism of the CXCL12-induced activation of signal transduction (CXCR4 [1]) | Imax (%), CRE activation (CXCR4 [1]; [3]) | pKi or pIC50, CRE activation (CXCR4 [1]; [3]) | pKB (CXCR4 [1]; from Schild plot data, CXCL12-induced reporter gene response) | Schild slope (CXCR4 [1]) | effect on activation of endogenous β2-adrenoceptors by salbutamol (β2-adrenoceptors) | inhibition of the CXCL12-induced accumulation of inositol phosphates (CXCR4 [2]) | Imax (%), IP accumulation (CXCR4 [2]; [4]) [%] | pKi or pIC50, IP accumulation (CXCR4 [2]; [4]) | agonist activity, inositol phosphate accumulation (CXCR4 [2]) | effect on agonist-induced response at CXCR2 (CXCR2)
B1 | do not act as agonists or antagonists; also recorded: do not alter | somewhat less | displace; also recorded: able to bind | do not act as agonists or antagonists; also recorded: do not alter | No agonist activity; also recorded: did not show any agonist activity | competitive antagonism | 104 ± 5^a % | 7.64 ± 0.16^b | 7.64±0.16 | 0.91±0.20 | do not act as agonists or antagonists; also recorded: did not inhibit | fully inhibited | 86 ± 12 | 8.51 ± 0.11 | no intrinsic activity; also recorded: No agonist activity | do not act as agonists or antagonists; also recorded: do not alter
B2 | do not act as agonists or antagonists; also recorded: do not alter | somewhat less | displace; also recorded: able to bind | do not act as agonists or antagonists; also recorded: do not alter | No agonist activity; also recorded: did not show any agonist activity | competitive antagonism | 90 ± 15^a % | – | – | 0.71±0.17 | do not act as agonists or antagonists; also recorded: did not inhibit | fully inhibited | 90 ± 5 | – | no intrinsic activity; also recorded: No agonist activity | do not act as agonists or antagonists; also recorded: do not alter
